± gives the uncertainty stated by the source.
Experiment: self-splicing fitness, log relative to wild type (ln ratio); higher = more splicing; Tetrahymena group I intron in knt gene, E. coli kanamycin selection, DiMSum; sequences stand for … in CUCUCU…GGAGGGAAAAGUUAUCAGGCAUGCACCUGGUAGCUAGUCUUUAAACCAAUAGAUUGCAUCGGUUUAAAAGGCAAGACCGUCAAAUUGCGGGAAAGGGGUCAACAGCCGUUCAGUACCAAGUCUCAGGGGAAACUUUGAGAUGGCCUUGCAAAGGGUAUGGUAAUAAGCUGACGGACAUGGUCCUAACCACGCAGCCAAGUCCUAAGUCAACAGAUCUUCUGUUGAUAUGGAUGCAGUUCACAGACUAAAUGUCGGUCGGGGAAGAUGUAUUCUUCUCAUAAGAUAUAGUCGGACCUCUCCUUAAUGGGAGCUAGCGGAUGAAGUGAUGCAACACUGGAGCCGCUGGGAACUAAUUUGUAUGCGAAAGUAUAUUGAUUAGUUUUGGAGUACUCGUGGUCG
Summary of the method: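 Colonies from six replicate transformations of E. coli BL21(DE3) were pooled and amplicon-sequenced on an Illumina HiSeq 2500. The library placed an intron with all eight P1ex-region nucleotides randomised inside the knt kanamycin-resistance gene on pET-22b(+), and cells grew overnight at 37°C or 30°C on LB agar with or without 25 μg/mL kanamycin (plus 100 μg/mL carbenicillin, 50 μM IPTG, 0.2% rhamnose). Fitness is the DiMSum error-weighted combination of wild-type-normalised replicate fold changes, kanamycin versus none.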

| Sequence | self-splicing fitness (ln) (30 °C) | self-splicing fitness (ln) (37 °C) |
| --- | --- | --- |
| UAUAAGCAAUAUUACGCUCG | -0.59 ± 0.082 | -0.442 ± 0.11 |
| UAUAAGCAAUAUUACGGACC | -2.68 ± 0.16 | -2.07 ± 0.22 |
| UAUAAGCAAUAUUACGGACG | 0.119 ± 0.088 | 0.194 ± 0.11 |
| UAUAAGCAAUAUUACGGGGA | -1.81 ± 0.19 | -1.91 ± 0.23 |
| UAUAAGCAAUAUUACGUAAG | -2.45 ± 0.15 | -1.08 ± 0.16 |
| UAUAAGCAAUAUUACGUCGU | -2.37 ± 0.12 | -1.69 ± 0.17 |
| UAUAAGCAAUAUUACGUCUG | -0.517 ± 0.081 | 0.316 ± 0.098 |
| UAUAAGCAAUAUUACGUCUU | -1 ± 0.085 | -0.554 ± 0.1 |
| UAUAAGCAAUAUUACGUUGA | -3.52 ± 0.22 | -1.25 ± 0.12 |
| UAUAAGCAAUAUUACGUUUA | -1.03 ± 0.1 | -0.548 ± 0.11 |
| UAUAAGCAAUAUUACGUUUU | -3.44 ± 0.23 | -1.85 ± 0.15 |
| UAUCAGCAAUAUUACGAAUU | -0.95 ± 0.076 | 0.113 ± 0.09 |
| UAUCAGCAAUAUUACGAGCC | -3.24 ± 0.34 | -2.33 ± 0.3 |
| UAUCAGCAAUAUUACGAGGA | -0.877 ± 0.13 | -1.39 ± 0.14 |
| UAUCAGCAAUAUUACGAGGU | -2.73 ± 0.28 | -3.78 ± 0.37 |
| UAUCAGCAAUAUUACGAGUA | -0.337 ± 0.079 | -0.301 ± 0.088 |
| UAUCAGCAAUAUUACGAUGG | -0.913 ± 0.062 | 0.0535 ± 0.083 |
| UAUCAGCAAUAUUACGCAAC | -2.71 ± 0.2 | -1.52 ± 0.17 |
| UAUCAGCAAUAUUACGCGCC | -1.34 ± 0.18 | -0.193 ± 0.26 |
| UAUCAGCAAUAUUACGCGCU | -2.73 ± 0.21 | -1.76 ± 0.23 |
| UAUCAGCAAUAUUACGCGGU | -2.68 ± 0.13 | -2.97 ± 0.27 |
| UAUCAGCAAUAUUACGCUCA | -0.0488 ± 0.092 | 0.0773 ± 0.11 |
| UAUCAGCAAUAUUACGGACG | -0.108 ± 0.091 | 0.00709 ± 0.11 |
| UAUCAGCAAUAUUACGGAGC | -3.14 ± 0.17 | -3.71 ± 0.19 |
| UAUCAGCAAUAUUACGGCAA | -0.306 ± 0.12 | 0.808 ± 0.15 |

| Sequence | self-splicing fitness (ln) (30 °C) | self-splicing fitness (ln) (37 °C) |
| --- | --- | --- |
| UAUCAGCAAUAUUACGGGCG | 0.0109 ± 0.065 | 0.684 ± 0.088 |
| UAUCAGCAAUAUUACGGUCU | -0.719 ± 0.092 | -0.878 ± 0.11 |
| UAUCAGCAAUAUUACGUCCU | -1.44 ± 0.18 | -1.01 ± 0.2 |
| UAUCAGCAAUAUUACGUUAC | -4.75 ± 0.39 | -2.6 ± 0.21 |
| UAUGAGCAAUAUUACGAACU | – | -1.57 ± 0.26 |
| UAUGAGCAAUAUUACGAAGG | -3.5 ± 0.2 | -1.4 ± 0.22 |
| UAUGAGCAAUAUUACGAAUA | -2.94 ± 0.27 | -2.22 ± 0.21 |
| UAUGAGCAAUAUUACGACAA | -2.78 ± 0.29 | -0.6 ± 0.18 |
| UAUGAGCAAUAUUACGACAC | – | -1.97 ± 0.41 |
| UAUGAGCAAUAUUACGACAU | -3.523 ± 0.029 | -2.56 ± 0.042 |
| UAUGAGCAAUAUUACGAGAA | -2.28 ± 0.37 | -0.332 ± 0.24 |
| UAUGAGCAAUAUUACGCAAA | -2.74 ± 0.45 | – |
| UAUGAGCAAUAUUACGCAAU | -3.54 ± 0.25 | -2.32 ± 0.18 |
| UAUGAGCAAUAUUACGCGAC | -2.82 ± 0.44 | -0.954 ± 0.39 |
| UAUGAGCAAUAUUACGCGCC | -4.05 ± 0.42 | – |
| UAUGAGCAAUAUUACGCGGA | -2.39 ± 0.25 | -1.69 ± 0.24 |
| UAUGAGCAAUAUUACGCGUG | -1.88 ± 0.12 | -1.04 ± 0.11 |
| UAUGAGCAAUAUUACGGAUG | -2.09 ± 0.12 | -1.64 ± 0.17 |
| UAUGAGCAAUAUUACGGCGU | -3.11 ± 0.21 | -2.38 ± 0.29 |
| UAUGAGCAAUAUUACGGUCU | -2.78 ± 0.28 | -2.96 ± 0.4 |
| UAUGAGCAAUAUUACGUCGA | -3.12 ± 0.38 | -2.47 ± 0.36 |
| UAUGAGCAAUAUUACGUCUU | -2.71 ± 0.27 | -1.93 ± 0.23 |
| UAUGAGCAAUAUUACGUGUG | -2.41 ± 0.097 | -1.1 ± 0.085 |
| UAUGAGCAAUAUUACGUGUU | -3.34 ± 0.17 | -2.99 ± 0.18 |
| UAUUAGCAAUAUUACGACAG | -1.58 ± 0.18 | -0.556 ± 0.19 |

| Sequence | self-splicing fitness (ln) (30 °C) | self-splicing fitness (ln) (37 °C) |
| --- | --- | --- |
| UAUUAGCAAUAUUACGACCG | 0.0866 ± 0.13 | -0.0729 ± 0.16 |
| UAUUAGCAAUAUUACGACUA | -0.146 ± 0.096 | 0.46 ± 0.11 |
| UAUUAGCAAUAUUACGAGAC | -2.57 ± 0.47 | – |
| UAUUAGCAAUAUUACGAGUA | -0.732 ± 0.25 | -0.0897 ± 0.24 |
| UAUUAGCAAUAUUACGAUCA | -0.168 ± 0.11 | -0.249 ± 0.14 |
| UAUUAGCAAUAUUACGAUGA | -0.641 ± 0.11 | 0.262 ± 0.13 |
| UAUUAGCAAUAUUACGAUGU | -3.01 ± 0.23 | -1.06 ± 0.15 |
| UAUUAGCAAUAUUACGCAAG | -2.29 ± 0.16 | -1.8 ± 0.18 |
| UAUUAGCAAUAUUACGCAUC | -3.67 ± 0.31 | -1.7 ± 0.3 |
| UAUUAGCAAUAUUACGCCCG | 0.243 ± 0.36 | 1.09 ± 0.36 |
| UAUUAGCAAUAUUACGCGUA | -1.95 ± 0.16 | -0.462 ± 0.12 |
| UAUUAGCAAUAUUACGCUGC | -2.92 ± 0.27 | -2.59 ± 0.49 |
| UAUUAGCAAUAUUACGGAAU | -4.02 ± 0.33 | -0.66 ± 0.19 |
| UAUUAGCAAUAUUACGGACA | -1.16 ± 0.2 | 0.703 ± 0.28 |
| UAUUAGCAAUAUUACGGACU | -2.33 ± 0.31 | -1.47 ± 0.4 |
| UAUUAGCAAUAUUACGGAGU | -3.84 ± 0.43 | -2.01 ± 0.29 |
| UAUUAGCAAUAUUACGGAUA | – | -0.897 ± 0.46 |
| UAUUAGCAAUAUUACGGAUC | -1.65 ± 0.18 | -0.508 ± 0.28 |
| UAUUAGCAAUAUUACGGUAU | -3.6 ± 0.29 | -2.26 ± 0.31 |
| UAUUAGCAAUAUUACGGUUG | -0.953 ± 0.15 | -0.107 ± 0.17 |
| UAUUAGCAAUAUUACGUACU | -0.305 ± 0.13 | -0.224 ± 0.16 |
| UAUUAGCAAUAUUACGUAUC | -3.31 ± 0.24 | -2.47 ± 0.29 |
| UAUUAGCAAUAUUACGUCGG | -1.21 ± 0.12 | -0.795 ± 0.15 |
| UAUUAGCAAUAUUACGUGAC | -2.92 ± 0.42 | -1.82 ± 0.27 |
| UAUUAGCAAUAUUACGUGGA | -2.75 ± 0.32 | -0.0772 ± 0.19 |

| Sequence | self-splicing fitness (ln) (30 °C) | self-splicing fitness (ln) (37 °C) |
| --- | --- | --- |
| UAUUAGCAAUAUUACGUGGG | -4.06 ± 0.27 | -2.44 ± 0.17 |
| UAUUAGCAAUAUUACGUUAC | -3.17 ± 0.23 | -2.86 ± 0.32 |
| UCAAAGCAAUAUUACGAAGG | -2.26 ± 0.1 | -1.05 ± 0.13 |
| UCAAAGCAAUAUUACGAAUU | -3.32 ± 0.25 | -1.65 ± 0.16 |
| UCAAAGCAAUAUUACGACCG | -0.525 ± 0.15 | 0.396 ± 0.21 |
| UCAAAGCAAUAUUACGACGA | -0.51 ± 0.074 | 0.278 ± 0.095 |
| UCAAAGCAAUAUUACGACUG | -0.4 ± 0.086 | -0.859 ± 0.11 |
| UCAAAGCAAUAUUACGAGGU | -3.05 ± 0.13 | -2.14 ± 0.14 |
| UCAAAGCAAUAUUACGCACA | -0.843 ± 0.079 | -0.191 ± 0.082 |
| UCAAAGCAAUAUUACGCAGA | -3.13 ± 0.21 | -2.64 ± 0.16 |
| UCAAAGCAAUAUUACGCCUG | -0.562 ± 0.066 | -0.293 ± 0.091 |
| UCAAAGCAAUAUUACGCUAC | -2.96 ± 0.46 | -2.22 ± 0.37 |
| UCAAAGCAAUAUUACGGAUC | -3.94 ± 0.41 | -3.23 ± 0.4 |
| UCAAAGCAAUAUUACGGCCG | -0.434 ± 0.1 | 0.158 ± 0.17 |
| UCAAAGCAAUAUUACGGUAC | -3.28 ± 0.16 | -2.71 ± 0.22 |
| UCAAAGCAAUAUUACGGUUG | -1.38 ± 0.086 | -0.732 ± 0.12 |
| UCAAAGCAAUAUUACGUAAA | -1.73 ± 0.13 | -1.94 ± 0.21 |
| UCAAAGCAAUAUUACGUACA | -1.2 ± 0.14 | -0.562 ± 0.16 |
| UCAAAGCAAUAUUACGUAUU | -3.03 ± 0.14 | -2.13 ± 0.17 |
| UCAAAGCAAUAUUACGUCAG | -1.75 ± 0.086 | -0.944 ± 0.097 |
| UCAAAGCAAUAUUACGUCCG | -0.781 ± 0.12 | -0.625 ± 0.16 |
| UCAAAGCAAUAUUACGUCGA | -0.83 ± 0.077 | -0.792 ± 0.081 |
